# Results published in US11969458B2, “Formula of neuregulin preparation” (Zensun (Shanghai) Science & Technology, Co., Ltd., priority 2014, dated 2024).
# Assay: pH-stability profile of rhNRG-1 in pH 3 to 10 buffers and DI-water (RP-HPLC, SDS-PAGE)
# Format: physicochemical
# Conditions: for T90: time to degrade 10% of the initial concentration; for Rate of degradation: zero order, linear regression slope
# Method: 2.1 Develop a RP-HPLC Method to Determine the Purity of rhNRG-1 Drug Substance.
# RhNRG-1, batch 201204001, which contains 1.24 mg/mL rhNRG-1, 20 mM phosphate buffer and 0.5M NaCl, pH 5.5 (“API”) was used for the preparation of standard solution for all HPLC analysis.
# In a 15 mL plastic tube, add the API and DI-water or a New Buffer. Mix into a solution containing 0.25 mg/mL rhNRG-1, 10 mM New Buffer, 4 mM phosphate (from the API) and 0.1 M NaCl (from the API).
# For 40° C., test by SDS-PAGE after 10 days. Destain I (45% water, 45% methanol, 10% acetic acid, freshly made); 0.1% Coomasic Blue stain; The running gel (12%-15%) serves to separate individual polypeptides into discrete bands.
# For 40° C., remove 150 μL and test by HPLC after 28.5, 49 and 77 hr.
# For each Cone-vs-time profile, a linear regression analysis was performed and the slope of the regression equation was used to represent the rate of degradation in mg/mL/hr assuming zero order kinetics.
# At each pH (3 to 8) and temperature, the estimated degradation rate and T90 (time to degrade 10% of the initial concentration or 0.025 mg/mL) are provided as follow (Table 10): […]
# [1] = pH 5.63 (No New Buffer added), 40° C.
# [2] = pH 5.63 (No New Buffer added), 60° C.
molecule,measurement,setting,value
"rhNRG-1: proteins or peptides which consist of amino acid sequence of SEQ ID NO: 2 (protein, listed as Homo sapiens) SHLVKCAEKEKTFCVNGGECFMVKDLSNPSRYLCKCPNEFTGDRCQNYVMASFYKAEELYQ",T90 at the lower pH relative to the one in its original buffer,"lower pH (3.2) vs original buffer (pH 5.5, as is)",about 20 ×
same,T90 at the lower pH relative to the one at pH 4.2,lower pH (3.2) vs pH 4.2,about 2 ×
same,pH of the best stability observed,"pH 3 to 8 study, lowest pH",3.2
same,stability in solution depending on pH,pH 3 to 10,more stable in acid solution (PH 3.0 to 7.0) than in basic solution (PH 8.0 to 10.0)
same,% over initial conc.,"pH 3.19 (Sodium phosphate), 40° C., 28.5 hr",97%
same,% over initial conc.,"pH 3.19 (Sodium phosphate), 40° C., 49 hr",97%
same,% over initial conc.,"pH 3.19 (Sodium phosphate), 40° C., 77 hr",96%
same,% over initial conc.,"pH 3.19 (Sodium phosphate), 60° C., 7.5 hr",98%
same,% over initial conc.,"pH 3.19 (Sodium phosphate), 60° C., 24 hr",93%
same,% over initial conc.,"pH 3.19 (Sodium phosphate), 60° C., 48 hr",89%
same,% over initial conc.,"pH 3.19 (Sodium phosphate), 60° C., 65 hr",82%
same,% over initial conc.,"pH 3.19 (Sodium phosphate), 60° C., 77 hr",72%
same,Initial Conc,pH 3.19 (Sodium phosphate),0.241 mg/mL
same,T90,"pH 3.19, 40° C.",10.4 days
same,Rate of degradation,"pH 3.19, 40° C.",0.0001 mg/mL/h
same,T90,"pH 3.19, 60° C.",1.7 days
same,Rate of degradation,"pH 3.19, 60° C.",0.0006 mg/mL/h
same,% over initial conc.,"pH 4.17 (Sodium acetate), 40° C., 28.5 hr",97%
same,% over initial conc.,"pH 4.17 (Sodium acetate), 40° C., 49 hr",97%
same,% over initial conc.,"pH 4.17 (Sodium acetate), 40° C., 77 hr",93%
same,% over initial conc.,"pH 4.17 (Sodium acetate), 60° C., 7.5 hr",99%
same,% over initial conc.,"pH 4.17 (Sodium acetate), 60° C., 24 hr",93%
same,% over initial conc.,"pH 4.17 (Sodium acetate), 60° C., 48 hr",91%
same,% over initial conc.,"pH 4.17 (Sodium acetate), 60° C., 65 hr",84%
same,% over initial conc.,"pH 4.17 (Sodium acetate), 60° C., 77 hr",78%
same,Initial Conc,pH 4.17 (Sodium acetate),0.247 mg/mL
same,T90,"pH 4.17, 40° C.",5.2 days
same,Rate of degradation,"pH 4.17, 40° C.",0.0002 mg/mL/h
same,T90,"pH 4.17, 60° C.",1.7 days
same,Rate of degradation,"pH 4.17, 60° C.",0.0006 mg/mL/h
same,% over initial conc.,"pH 5.08 (Sodium acetate), 40° C., 28.5 hr",94%
same,% over initial conc.,"pH 5.08 (Sodium acetate), 40° C., 49 hr",94%
same,% over initial conc.,"pH 5.08 (Sodium acetate), 40° C., 77 hr",86%
same,% over initial conc.,"pH 5.08 (Sodium acetate), 60° C., 7.5 hr",98%
same,% over initial conc.,"pH 5.08 (Sodium acetate), 60° C., 24 hr",92%
same,% over initial conc.,"pH 5.08 (Sodium acetate), 60° C., 48 hr",93%
same,% over initial conc.,"pH 5.08 (Sodium acetate), 60° C., 65 hr",82%
same,% over initial conc.,"pH 5.08 (Sodium acetate), 60° C., 77 hr",82%
same,Initial Conc,pH 5.08 (Sodium acetate),0.242 mg/mL
same,T90,"pH 5.08, 40° C.",2.6 days
same,Rate of degradation,"pH 5.08, 40° C.",0.0004 mg/mL/h
same,T90,"pH 5.08, 60° C.",1.7 days
same,Rate of degradation,"pH 5.08, 60° C.",0.0006 mg/mL/h
same,% over initial conc.,"pH 5.47 (Histidine), 60° C., 7.5 hr",95%
same,% over initial conc.,"pH 5.47 (Histidine), 60° C., 24 hr",92%
same,% over initial conc.,"pH 5.47 (Histidine), 60° C., 48 hr",86%
same,% over initial conc.,"pH 5.47 (Histidine), 60° C., 65 hr",79%
same,% over initial conc.,"pH 5.47 (Histidine), 60° C., 77 hr",79%
same,Initial Conc,pH 5.47 (Histidine),0.248 mg/mL
same,T90,"pH 5.47, 60° C.",1.5 days
same,Rate of degradation,"pH 5.47, 60° C.",0.0007 mg/mL/h
same,% over initial conc.,"pH 5.63 (No New Buffer added), 40° C., 28.5 hr",92%
same,% over initial conc.,"pH 5.63 (No New Buffer added), 40° C., 49 hr",91%
same,% over initial conc.,"pH 5.63 (No New Buffer added), 40° C., 77 hr",38%
same,T90,[1],0.5 days
same,Rate of degradation,[1],0.0019 mg/mL/h
same,% over initial conc.,"pH 5.63 (No New Buffer added), 60° C., 7.5 hr",95%
same,% over initial conc.,"pH 5.63 (No New Buffer added), 60° C., 24 hr",84%
same,% over initial conc.,"pH 5.63 (No New Buffer added), 60° C., 48 hr",82%
same,% over initial conc.,"pH 5.63 (No New Buffer added), 60° C., 65 hr",69%
same,% over initial conc.,"pH 5.63 (No New Buffer added), 60° C., 77 hr",64%
same,T90,[2],1.0 days
same,Rate of degradation,[2],0.001 mg/mL/h
same,Initial Conc,pH 5.63 (No New Buffer added),0.251 mg/mL
same,% over initial conc.,"pH 6.02 (Sodium citrate), 40° C., 28.5 hr",94%
same,% over initial conc.,"pH 6.02 (Sodium citrate), 40° C., 49 hr",94%
same,% over initial conc.,"pH 6.02 (Sodium citrate), 40° C., 77 hr",86%
same,% over initial conc.,"pH 6.02 (Sodium citrate), 60° C., 7.5 hr",95%
same,% over initial conc.,"pH 6.02 (Sodium citrate), 60° C., 24 hr",88%
same,% over initial conc.,"pH 6.02 (Sodium citrate), 60° C., 48 hr",85%
same,% over initial conc.,"pH 6.02 (Sodium citrate), 60° C., 65 hr",72%
same,% over initial conc.,"pH 6.02 (Sodium citrate), 60° C., 77 hr",72%
same,Initial Conc,pH 6.02 (Sodium citrate),0.251 mg/mL
same,T90,"pH 6.02, 40° C.",2.6 days
same,Rate of degradation,"pH 6.02, 40° C.",0.0004 mg/mL/h
same,T90,"pH 6.02, 60° C.",1.2 days
same,Rate of degradation,"pH 6.02, 60° C.",0.0009 mg/mL/h
same,% over initial conc.,"pH 7.00 (Sodium phosphate), 40° C., 28.5 hr",92%
same,% over initial conc.,"pH 7.00 (Sodium phosphate), 40° C., 49 hr",87%
same,% over initial conc.,"pH 7.00 (Sodium phosphate), 40° C., 77 hr",82%
same,% over initial conc.,"pH 7.00 (Sodium phosphate), 60° C., 7.5 hr",90%
same,% over initial conc.,"pH 7.00 (Sodium phosphate), 60° C., 24 hr",76%
same,% over initial conc.,"pH 7.00 (Sodium phosphate), 60° C., 48 hr",65%
same,Initial Conc,pH 7.00 (Sodium phosphate),0.251 mg/mL
same,T90,"pH 7.00, 40° C.",1.7 days
same,Rate of degradation,"pH 7.00, 40° C.",0.0006 mg/mL/h
same,T90,"pH 7.00, 60° C.",0.7 days
same,Rate of degradation,"pH 7.00, 60° C.",0.0015 mg/mL/h
same,% over initial conc.,"pH 8.07 (Sodium bicarbonate), 40° C., 28.5 hr",89%
same,% over initial conc.,"pH 8.07 (Sodium bicarbonate), 40° C., 49 hr",83%
same,% over initial conc.,"pH 8.07 (Sodium bicarbonate), 40° C., 77 hr",68%
same,% over initial conc.,"pH 8.07 (Sodium bicarbonate), 60° C., 7.5 hr",68%
same,% over initial conc.,"pH 8.07 (Sodium bicarbonate), 60° C., 24 hr",4%
same,Initial Conc,pH 8.07 (Sodium bicarbonate),0.253 mg/mL
same,T90,"pH 8.07, 40° C.",1.0 days
same,Rate of degradation,"pH 8.07, 40° C.",0.001 mg/mL/h
same,T90,"pH 8.07, 60° C.",0.2 days
same,Rate of degradation,"pH 8.07, 60° C.",0.0061 mg/mL/h
